Measured values reported in paper PMC6556580 (The Journal of Biological Chemistry, 2019).
“And” between values parts separate entries of the source, which are not always exact repeats. Equal values may be shown once. Read-outs that look alike come from different tables or passages of the source.

What was measured:
[1] = molecular target: the molecule itself; experiment: SEC-MALS; samples at 0.5–20 mg/ml in 20 mM Tris pH 8.0, 150 mM KCl, 2 mM DTT; Superdex 200 Increase 10/300 GL; concentration series and enriched species; self-association: dimer and higher oligomers of dimers
[2] = molecular target: the molecule itself; experiment: as above; remark: listed apart in the source
[3] = molecular target: the molecule itself; experiment: dynamic light scattering; 20 °C, samples at 5–20 mg/ml in 20 mM Tris pH 8.0, 150 mM KCl, 2 mM DTT; size distribution by volume

B1: SYCE3 1–88 W41A/Y44A (natural protein, human, UniProt A1L190 1-88, looked up)
chain: MDDADPEERNYDNMLKMLSDLNKDLEKLLEEMEKISVQATAMAADMVVMRTNPTLAESMRRLEDAFVNCKEEMEKNWQELLHETKQRL
notes: SYCE3, human, amino acids 1–88 with W41A and Y44A; also called SYCE3 W41A/Y44A; source: E. coli BL21(DE3), purified (Ni-NTA, amylose, anion exchange, SEC where appropriate); not shown: His6, N-terminal, cleaved; MBP, N-terminal, cleaved
- stoichiometry N [1]: 2 and 4

B2: SYCE3 1–88 P53Q (natural protein, human, UniProt A1L190 1-88, looked up)
chain: MDDADPEERNYDNMLKMLSDLNKDLEKLLEEMEKISVQATWMAYDMVVMRTNQTLAESMRRLEDAFVNCKEEMEKNWQELLHETKQRL
notes: SYCE3, human, amino acids 1–88 with P53Q; also called SYCE3 P53Q; source: E. coli BL21(DE3), purified (Ni-NTA, amylose, anion exchange, SEC where appropriate); not shown: His6, N-terminal, cleaved; MBP, N-terminal, cleaved
- binding result [1]: binds

B3: SYCE3 1–88 PPP-loop (natural protein, human, UniProt A1L190 1-88, looked up)
chain: MDDADPEERNYDNMLKMLSDLNKDLEKLLEEMEKISVQATWMAYDMVVGGPPPTLAESMRRLEDAFVNCKEEMEKNWQELLHETKQRL
notes: also called SYCE3 PPP-loop; source: E. coli BL21(DE3), purified (Ni-NTA, amylose, anion exchange, SEC where appropriate); not shown: His6, N-terminal, cleaved; MBP, N-terminal, cleaved
- stoichiometry N [1]: 2

B4: SYCE3 12–88 L15N (domain or fragment, human, UniProt A1L190 12-88, looked up)
chain: DNMNKMLSDLNKDLEKLLEEMEKISVQATWMAYDMVVMRTNPTLAESMRRLEDAFVNCKEEMEKNWQELLHETKQRL
notes: SYCE3, human, amino acids 12–88 with point mutation L15N; source: E. coli BL21(DE3), purified (Ni-NTA, amylose, anion exchange, SEC where appropriate); not shown: His6, N-terminal, cleaved; MBP, N-terminal, cleaved
- stoichiometry N [1]: 2

B5: SYCE3 12–88 (domain or fragment, human, UniProt A1L190 12-88, looked up)
chain: DNMLKMLSDLNKDLEKLLEEMEKISVQATWMAYDMVVMRTNPTLAESMRRLEDAFVNCKEEMEKNWQELLHETKQRL
notes: SYCE3, human, amino acids 12–88 (α1 N-terminal tip removed, structural core kept); source: E. coli BL21(DE3), purified (Ni-NTA, amylose, anion exchange, SEC where appropriate); not shown: His6, N-terminal, cleaved; MBP, N-terminal, cleaved
- stoichiometry N [2]: 2

B6: SYCE3 9–88 Y11N/L15N (domain or fragment, human, UniProt A1L190 9-88, looked up)
chain: RNNDNMNKMLSDLNKDLEKLLEEMEKISVQATWMAYDMVVMRTNPTLAESMRRLEDAFVNCKEEMEKNWQELLHETKQRL
notes: SYCE3, human, amino acids 9–88 with Y11N and L15N (label of the legend; the text says 'mutation to glutamine'); source: E. coli BL21(DE3), purified (Ni-NTA, amylose, anion exchange, SEC where appropriate); not shown: His6, N-terminal, cleaved; MBP, N-terminal, cleaved
- stoichiometry N [2]: 2

B7: MBP-SYCE3 fusion protein (natural protein, human, UniProt A1L190 1-88, looked up)
chain: MDDADPEERNYDNMLKMLSDLNKDLEKLLEEMEKISVQATWMAYDMVVMRTNPTLAESMRRLEDAFVNCKEEMEKNWQELLHETKQRL
notes: SYCE3, human; source: E. coli BL21(DE3), purified; not shown: MBP, N-terminal, kept
- stoichiometry N [2]: 4 and 6

B8: SYCE3 9–88 (domain or fragment, human, UniProt A1L190 9-88, looked up)
chain: RNYDNMLKMLSDLNKDLEKLLEEMEKISVQATWMAYDMVVMRTNPTLAESMRRLEDAFVNCKEEMEKNWQELLHETKQRL
notes: SYCE3, human, amino acids 9–88 (unstructured N terminus removed); source: E. coli BL21(DE3), purified (Ni-NTA, amylose, anion exchange, SEC where appropriate); not shown: His6, N-terminal, cleaved; MBP, N-terminal, cleaved
- binding result [3]: binds

B9: Human SYCE3 full-length (amino acids 1–88) (natural protein, UniProt A1L190 1-88, looked up)
chain: MDDADPEERNYDNMLKMLSDLNKDLEKLLEEMEKISVQATWMAYDMVVMRTNPTLAESMRRLEDAFVNCKEEMEKNWQELLHETKQRL
notes: SYCE3, human, full length, amino acids 1–88 (protein of 88 amino acids); it assembles further with concentration; Tags removed with TEV protease; also called SYCE3 1–88; WT SYCE3; source: E. coli BL21(DE3), purified (Ni-NTA, amylose, anion exchange, SEC where appropriate); not shown: His6, N-terminal, cleaved; MBP, N-terminal, cleaved
- stoichiometry N [2]: 24

B10: SYCE3 1–88 W41E/Y44E (natural protein, human, UniProt A1L190 1-88, looked up)
chain: MDDADPEERNYDNMLKMLSDLNKDLEKLLEEMEKISVQATEMAEDMVVMRTNPTLAESMRRLEDAFVNCKEEMEKNWQELLHETKQRL
notes: SYCE3, human, amino acids 1–88 with W41E and Y44E; also called SYCE3 W41E/Y44E; source: E. coli BL21(DE3), purified (Ni-NTA, amylose, anion exchange, SEC where appropriate); not shown: His6, N-terminal, cleaved; MBP, N-terminal, cleaved
- stoichiometry N [1]: 2
